The values below come from patent US11118167B2, “Enzyme-mediated depletion of adenosine and/or methylthioadenosine” (BOARD OF REGENTS, THE UNIVERSITY OF TEXAS SYSTEM, priority 2017, dated 2021).

Data set [1] is described as follows: Kinetic stability of purified enzymes in phosphate buffer. The data set is classed as physicochemical. As for the experimental part: The kinetic stabilities of purified hs-MTAP and se-MTAN enzymes were determined by incubating the enzymes in a 100 mM phosphate buffer (pH 7.4) at 37° C. Over the course of four days, aliquots of hs-MTAP and se-MTAN were withdrawn from the incubations and assessed for their ability to degrade MTA as described in Example 5. The resulting data were processed and fitted to an exponential equation to determine the decay rate.

The next data set relates to murine T cells. In words: Restoring proliferation of murine T cells treated with MTA (CellTrace Violet, FACS). It is filed as cell-based, mouse. The settings on record: 5 μM enzyme, CD8+ and CD4+ T cells. An excerpt: Spleens dissected from healthy 8-week-old C57BL6 mice were crushed in a 70 μm Falcon™ Cell Strainer to obtain single cells, which were further isolated using the EasySep™ Mouse T-Cell Isolation Kit (Stem Cell). Isolated T cells were brought to a concentration of 1×10^6 cells/mL in PBS and were processed according to the CellTrace™ Violet Cell Proliferation Kit protocol (Thermo Fisher), which measures proliferation as a function of dye dilution with each cell-division. The labeled cells were then re-counted and brought to 1×10^6 cells/mL of RPMI media and 1 mL/well were plated, after which anti-CD3/CD28 beads were added to activate the T cells (Dynabeads® Mouse T-Activator CD3/CD28 for T-Cell Expansion and Activation from Thermo Fisher) according to the protocol from the kit. Subsequently, three different MTA concentrations, 0 μM MTA, 125 μM MTA, or 250 μM MTA were added to the plated cells. Finally, MTAP and MTAN were added to the appropriate wells at a final concentration of 5 μM enzyme, and PBS was added to the control wells. After incubation for five days, cells were then collected and stained with anti-CD3, anti-CD4, anti-CD8, and Fixable Viability Dye eFluor™ 520 and analyzed by FACS. The antibodies used were all from Biolegend: PE anti-mouse CD3 (17A2), APC anti-mouse CD4 (GK1.5), APC/Fire™ 750 anti-mouse CD8a (53-6.7), and Brilliant Violet 421™ anti-mouse Ki-67 (16A8). […]

The next data set relates to B16-F10 MTAP−/− tumor. In words: Immune phenotype in the B16-MTAP−/− melanoma tumor model (FACS). The settings on record: two doses, 24 hr post dose, vs vehicle. The data set is classed as in vivo, mouse. As for the experimental part:
Lymphocyte panels observed by FACS analyses from C57/BL6 mice bearing B16-F10 MTAP^−/− tumor samples were assessed after treatment with two doses of PEG-MTAP or vehicle (analyzed 24 hr post dose).

For data set [2], the system named is B16-F10 MTAP−/− allografts. The data set can be described thus: Efficacy in the B16-MTAP−/− melanoma tumor model. To be noted: 50 mg/kg three times/week peri-tumoral, 2 weeks. The data set is classed as in vivo, mouse. The text has this: As B16 is a very well characterized cell line in terms of metabolism and its interaction with host immune systems, it was hypothesized that an MTAP deletion in this strain would create a relevant model to evaluate the consequences of MTA accumulation both metabolically to the tumor and upon the host immune system. Cas9 protein (TrueCut™ Cas9 Protein v2) and synthetic single guide RNA purchased through ThermoFisher were transfected into B16-F10 WT cells using lypofectamine (Lipofectamine™ CRISPRMAX™ Cas9 Transfection Reagent). After two days of transfection, cells were plated using limited dilution method into ten 96-well plates. Plates were examined daily for single cell clones and after reaching confluency (10-14 days post transfection) clones were further expanded and analyzed for MTAP expression through Western blotting, and clones lacking MTAP expression were verified for gene disruption by cloning and sequencing.
(§1) Two cohorts each of C57/BL6 mice were subcutaneously inoculated with either 50,000 WT B16-F10 or B16-F10 MTAP^−/− cells. When the tumors reached a mean size of 55 mm^3 the mice were treated with either vehicle (PBS) or 50 mg/kg of PEG-MTAP three times/week by peri-tumoral injection for 2 weeks. As expected from a tumor highly expressing MTAP, it was observed that PEG-MTAP treatment had no effect on the growth of WT B16-F10 tumors (FIG. 8A).

The subject of a further data set is WT B16-F10 tumors. The data set can be described thus: Efficacy in the B16 WT melanoma tumor model. The data set is classed as in vivo, mouse. The settings on record: C57/BL6 mice, 50 mg/kg three times/week peri-tumoral, 2 weeks. The method, then:
as §1

B1: hs-MTAP: MTAP enzyme from Homo sapiens (SEQ ID NO: 1), N-terminal His6 tag, expressed in E. coli (protein, listed as Homo sapiens)
chain: MASGTTTTAVKIGIIGGTGLDDPEILEGRTEKYVDTPFGKPSDALILGKIKNVDCVLLARHGRQHTIMPSKVNYQANIWALKEEGCTHVIVTTACGSLREEIQPGDIVIIDQFIDRTTMRPQSFYDGSHSCARGVCHIPMAEPFCPKTREVLIETAKKLGLRCHSKGTMVTIEGPRFSSRAESFMFRTWGADVINMTTVPEVVLAKEAGICYASIAMATDYDCWKEHEEAVSVDRVLKTLKENANKAKSLLLTTIPQIGSTEWSETLHNLKNMAQFSVLLPRH
modifications: N-terminal His6 tag
For B1, in data set [1] (pH 7.4), the “half-life (T1/2) of activity” value is 57 h. Also, in the data set with murine T cells, the “reversal of the MTA effect on T cell proliferation and viability” value was “completely reversed”.

B2: PEG-hs-MTAP: hs-MTAP with surface lysine residues reacted with Methoxyl PEG Succinimidyl Carbonate 5000 MW (conjugate, UniProt Q13126 1-283, looked up)
S-methyl-5'-thioadenosine …: B1 chain
modifications: PEG 5000
notes: hs-MTAP with surface lysine residues reacted with Methoxyl PEG Succinimidyl Carbonate 5000 MW
As to B2, in the data set on B16-F10 MTAP−/− tumor, the “percentage of CD4+ T cells” value is listed as “large increases”, the “percentage of NK1.1+ natural killer cells” value is “large increases” and the “percentage of proliferating CD8+ Granzyme B+ T cells” value was “large increases”. The “complete responses (CRs) in the treatment group” value in data set [2] (3/7 CRs) is 43%. In data set [2] (C57/BL6 mice), the tumor growth result was “drastically retarded tumor growth”. In addition, in the data set on WT B16-F10 tumors, the tumor growth result was “no effect”.

B3: se-MTAN: MTAN enzyme from Salmonella enterica (SEQ ID NO: 3), N-terminal His6 tag, expressed in E. coli (protein, listed as Salmonella enterica)
chain: MKIGIIGAMEEEVTLLRDKIDNRQTITLGGCEIYTGQLNGTEVALLKSGIGKVAAALGATLLLEHCKPDVIINTGSAGGLASTLKVGDIVVSDETRYHDADVTAFGYEYGQLPGCPAGFKADDKLIAAAESCIRELNLNAVRGLIVSGDAFINGSVGLAKIRHNFPDAVAVEMEATAIAHVCHNFNVPFVVVRAISDVADQQSHLSFDEFLAVAAKQSTLMVETLVQKLAHG
modifications: N-terminal His6 tag
In the case of B3, in data set [1] (100 mM phosphate buffer, pH 7.4, 37° C.), the “half-life (T1/2) of activity” value was found to be 56 h. Besides, the “reversal of the MTA effect on T cell proliferation and viability” value in the data set with murine T cells is listed as “completely reversed”.
